Measurements taken from patent publication US20210054055A1.
Like-named read-outs stand apart in the source and are kept apart here.

What was measured:
[1] = target: Zika virus (ZIKV) virions, envelope protein E (Zika virus)
[2] = target: Dengue virus serotype 4 (DENV4) virions, envelope protein E (Dengue virus 4)
[3] = target: Dengue virus serotype 4 (DENV4) virions, envelope protein E (Dengue virus 4); remark: listed apart in the source
[4] = target: Zika virus (ZIKV) virions, envelope protein E (Zika virus); remark: listed apart in the source

Substance: 1M7 (antibody)
- IC50 (read off the curve) [1]: 0.09 µg/mL

Substance: 2D22 (antibody)
- EC50 (read off the curve) (DENV): 0.08 µg/mL

Substance: EDE1 mAb C8 (antibody)
- IC50 (read off the curve) [1]: 0.2 µg/mL

Substance: EDE1 mAb C10 (antibody)
- EC50 (read off the curve) [2]: 0.2 µg/mL
- FRNT50 (focus reduction neutralization on Vero cells) (H/PF/2013 (Zika virus)): 16.2 ng/mL
- FRNT50 (focus reduction neutralization on Vero cells) [3]: 88.9 ng/mL
- FRNT50 (focus reduction neutralization on Vero cells) (MR766): 0.2 ng/mL
- FRNT50 (focus reduction neutralization on Vero cells) (Dakar (Zika virus)): 28.5 ng/mL
- EC50 (read off the curve) (DENV): 0.08 µg/mL

Substance: ZKA78 (antibody)
- IC50 (read off the curve) [1]: 0.2 µg/mL

Substance: ZKA190, human ZIKV-specific mAb (antibody)
- IC50 (read off the curve) [4]: 0.07 µg/mL
